What is called Kd is a measure of binding affinity in units of concentration. The low end stands for a tighter complex, the high end for a looser complex. What is called kon is the second-order rate constant of association. Broadly, the koff is the rate constant with which the complex falls apart. A lower koff goes with a long-lived complex.

Assay [1] has as its target human KIT (wild-type KIT) (human, UniProt P10721 26-976). As to the kind of experiment: cell-based or functional assay.
A further assay deals with T1, recombinant human FcγRI (human, UniProt P12314 16-288, limits assumed).
T1 construct: Histidine-tagged recombinant receptor captured on anti-Penta-His biosensors; also called Fc-gamma receptor I; not shown: histidine tag
The assay can be described thus: bio-layer interferometry (Octet QKe); His-tagged receptor on anti-Penta-His biosensor, antibody in solution. (BLI is a label-free optical method that tracks binding on a fibre tip over time.)

Assay [2] addresses T2, recombinant human FcγRIIa (human, UniProt P12318 36-218, limits assumed).
T2 construct: Histidine-tagged recombinant receptor; not shown: histidine tag
T2 sequence (looked up): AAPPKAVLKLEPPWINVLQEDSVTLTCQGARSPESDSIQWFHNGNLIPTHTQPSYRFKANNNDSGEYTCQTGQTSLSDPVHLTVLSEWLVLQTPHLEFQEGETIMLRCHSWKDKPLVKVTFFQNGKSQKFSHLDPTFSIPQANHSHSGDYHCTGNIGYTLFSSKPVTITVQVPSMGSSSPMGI
The description is as above.

For assay [3], the target named is T3, recombinant human FcγRIIb (human, UniProt P31994 46-217, limits assumed).
T3 construct: Histidine-tagged recombinant receptor; not shown: histidine tag
T3 sequence (looked up): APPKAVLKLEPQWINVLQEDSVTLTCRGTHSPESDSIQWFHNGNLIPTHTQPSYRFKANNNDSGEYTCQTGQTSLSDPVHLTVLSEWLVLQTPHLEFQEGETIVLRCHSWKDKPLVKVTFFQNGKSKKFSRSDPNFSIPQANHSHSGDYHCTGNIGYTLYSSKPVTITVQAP
Described as above.

The target of assay [4] is T4, recombinant human FcγRIIIa (human, UniProt P08637 17-208).
T4 construct: Histidine-tagged recombinant receptor; not shown: histidine tag
The assay is described as above.

Assay [5] deals with T5, recombinant human FcγRIIIb (human, UniProt O75015 17-200).
T5 construct: Histidine-tagged recombinant receptor; not shown: histidine tag
The assay is described as above.

Assay [6] addresses T6, human neonatal Fc Receptor (FcRn) (human, UniProt P55899 24-297; P61769 21-119).
T6 construct: not shown: histidine tag
As to the kind of experiment: bio-layer interferometry (Octet QKe) at pH 6.0; His-tagged FcRn on anti-Penta-His biosensor, antibody in solution.

Assay [7] addresses T6, human neonatal Fc Receptor (FcRn). As to the kind of experiment: bio-layer interferometry (Octet QKe) at pH 7.2; His-tagged FcRn on anti-Penta-His biosensor, antibody in solution.
Description: (§1) Binding to recombinant human Fc receptors was measured by bio-layer interferometry using an Octet® QKe instrument. […] Curve fitting was performed using the instrument's analysis software. Binding to FcRn was performed with association and dissociation steps at pH 6.0 as well as pH 7.2.
For assay [8] the target is unchanged. The assay can be described thus: bio-layer interferometry (Octet QKe), His-tagged FcRn captured on anti-Penta-His biosensors, pH 7.2, antibody range 500-15.6 nM, R2 0.9876.
Description: as §1
Assay [9] shares this target. As to the kind of experiment: bio-layer interferometry (Octet QKe), His-tagged FcRn captured on anti-Penta-His biosensors, pH 6.0, antibody range 31.25-1.9 nM, R2 0.9869.
Description: as §1
The target is the same in assay [10]. As to the kind of experiment: bio-layer interferometry (Octet QKe), His-tagged FcRn captured on anti-Penta-His biosensors, pH 7.2, antibody range 500-15.6 nM, R2 0.9876; row head Kdis(1/s).
Description: as §1
For assay [11] the target is unchanged. The assay can be described thus: bio-layer interferometry (Octet QKe), His-tagged FcRn captured on anti-Penta-His biosensors, pH 6.0, antibody range 31.25-1.9 nM, R2 0.9869; row head Kdis(1/s).
Description: as §1

T6 sequence (P55899 24-297 limits assumed, form in doubt, chain 1 of 2): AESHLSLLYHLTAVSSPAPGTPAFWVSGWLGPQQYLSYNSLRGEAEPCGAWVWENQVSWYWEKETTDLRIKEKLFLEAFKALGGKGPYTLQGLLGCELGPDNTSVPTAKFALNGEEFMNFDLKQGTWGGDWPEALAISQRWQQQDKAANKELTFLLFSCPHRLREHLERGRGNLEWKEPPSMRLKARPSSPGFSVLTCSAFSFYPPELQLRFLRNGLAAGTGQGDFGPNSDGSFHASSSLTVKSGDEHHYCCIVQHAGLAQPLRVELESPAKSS
T6 sequence (P61769 21-119 limits assumed, form in doubt, chain 2 of 2): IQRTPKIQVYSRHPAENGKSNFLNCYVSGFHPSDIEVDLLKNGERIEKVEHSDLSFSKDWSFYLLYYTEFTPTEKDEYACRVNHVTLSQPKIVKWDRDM
T4 sequence (P08637 17-208 limits assumed): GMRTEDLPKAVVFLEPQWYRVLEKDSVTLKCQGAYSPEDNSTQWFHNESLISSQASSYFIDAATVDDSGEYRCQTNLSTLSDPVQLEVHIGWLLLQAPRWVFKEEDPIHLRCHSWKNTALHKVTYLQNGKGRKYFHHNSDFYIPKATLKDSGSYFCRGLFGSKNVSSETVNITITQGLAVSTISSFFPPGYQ
Sequence of human KIT (wild-type KIT) (P10721 other isoform, or with tags, fused parts or gaps limits assumed): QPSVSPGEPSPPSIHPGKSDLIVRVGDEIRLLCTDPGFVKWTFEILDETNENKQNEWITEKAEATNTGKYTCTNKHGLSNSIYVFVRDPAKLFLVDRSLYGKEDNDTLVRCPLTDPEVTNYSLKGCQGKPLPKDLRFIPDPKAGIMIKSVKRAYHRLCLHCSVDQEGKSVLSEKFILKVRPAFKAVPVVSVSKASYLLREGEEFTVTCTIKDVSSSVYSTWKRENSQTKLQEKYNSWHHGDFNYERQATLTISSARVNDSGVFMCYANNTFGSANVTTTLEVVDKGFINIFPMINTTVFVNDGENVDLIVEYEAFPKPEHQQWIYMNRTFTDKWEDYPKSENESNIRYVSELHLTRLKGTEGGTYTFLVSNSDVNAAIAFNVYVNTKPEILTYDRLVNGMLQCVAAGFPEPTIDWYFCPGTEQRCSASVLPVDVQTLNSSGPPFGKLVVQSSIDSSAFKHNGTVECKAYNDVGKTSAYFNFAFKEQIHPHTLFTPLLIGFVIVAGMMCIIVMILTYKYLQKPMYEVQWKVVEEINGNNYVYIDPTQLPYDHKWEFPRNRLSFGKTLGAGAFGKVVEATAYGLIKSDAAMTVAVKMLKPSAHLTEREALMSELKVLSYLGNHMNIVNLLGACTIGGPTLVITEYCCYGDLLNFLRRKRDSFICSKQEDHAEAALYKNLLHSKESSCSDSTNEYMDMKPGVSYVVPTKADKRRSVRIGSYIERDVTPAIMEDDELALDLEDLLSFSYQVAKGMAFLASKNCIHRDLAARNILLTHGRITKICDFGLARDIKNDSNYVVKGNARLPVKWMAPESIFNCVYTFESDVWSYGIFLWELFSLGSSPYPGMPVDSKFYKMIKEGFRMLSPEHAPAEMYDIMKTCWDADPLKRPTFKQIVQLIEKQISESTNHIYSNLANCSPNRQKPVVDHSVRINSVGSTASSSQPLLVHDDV
T5 sequence (O75015 17-200 limits assumed): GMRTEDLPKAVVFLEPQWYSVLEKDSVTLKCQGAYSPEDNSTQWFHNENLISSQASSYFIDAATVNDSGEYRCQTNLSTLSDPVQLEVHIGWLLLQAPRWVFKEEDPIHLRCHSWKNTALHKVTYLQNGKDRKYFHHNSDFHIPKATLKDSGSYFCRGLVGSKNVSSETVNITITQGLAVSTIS
T1 sequence (P12314 16-288 limits assumed): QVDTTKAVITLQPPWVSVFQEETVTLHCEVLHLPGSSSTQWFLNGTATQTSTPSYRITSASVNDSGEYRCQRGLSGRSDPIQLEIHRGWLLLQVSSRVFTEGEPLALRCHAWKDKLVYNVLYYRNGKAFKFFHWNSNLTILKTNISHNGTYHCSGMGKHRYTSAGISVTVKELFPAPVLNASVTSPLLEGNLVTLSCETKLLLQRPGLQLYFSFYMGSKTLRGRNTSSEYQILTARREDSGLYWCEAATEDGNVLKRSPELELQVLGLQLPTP

B1: mAb1 (antibody)
heavy: QVQLVQSGAEVKKPGASVKLSCKASGYTFTDYYINWVRQAPGKGLEWIARIYPGSGNTYYNEKFKGRATLTADKSTSTAYMQLSSLRSEDTAVYFCARGVYYFDYWGQGTTVTVSSASTKGPSVFPLAPSSKSTSGGTAALGCLVKDYFPEPVTVSWNSGALTSGVHTFPAVLQSSGLYSLSSVVTVPSSSLGTQTYICNVNHKPSNTKVDKKVEPKSCDKTHTCPPCPAPEAQGGPSVFLFPPKPKDTLYITREPEVTCVVVDVSHEDPEVKFNWYVDGVEVHNAKTKPREEQYNSTYRVVSVLTVLHQDWLNGKEYKCQVSNKALPAPIEKTISKAKGQPREPQVYTLPPSRDELTKNQVSLTCLVKGFYPSDIAVEWESNGQPENNYKTTPPVLDSDGSFFLYSKLTVDKSRWQQGNVFSCSVMHEALHNHYTQKSLSLSPG
light: DIVMTQSPSSLSASVGDRVTITCKASQNVRTNVAWYQQKPGKAPKALIYSASYRYSGVPDRFTGSGSGTDFTLTISSLQPEDFADYFCQQYNSYPRTFGGGTKVEIKRTVAAPSVFIFPPSDEQLKSGTASVVCLLNNFYPREAKVQWKVDNALQSGNSQESVTEQDSKDSTYSLSSTLTLSKADYEKHKVYACEVTHQGLSSPVTKSFNRGEC
notes: Expressed in CHO cells; also called anti-KIT antibody mAb1; Fc mutated anti-KIT antibody
On to B1, for which, in assay [1], the “mean IC50, inhibition of SCF-dependent M-07e cell proliferation” value stood at 1.11 nM. The binding result (with recombinant human FcγRI; in assay [2]; in assay [3]; in assay [4]; in assay [5]) was “no binding (tested: 500 nM)” each time. Further, the dissociation constant Kd amounted to 0.38 nM in [6], 77.1 nM in assay [7] and 0.383 nM in assay [9]. Also, the kon in [8] worked out at 1.05e+06 M⁻¹ s⁻¹; in [9], 2e+06 M⁻¹ s⁻¹. For the same molecule, the figures for the koff in assay [10] and in assay [11] were 0.0807 s⁻¹ and 0.000765 s⁻¹, respectively.

For the origin of these results see patent US20240109961A1 (CELLDEX THERAPEUTICS, published 2024).
